Experimental findings from US20160168251A1 (MorphoSys, published 2016) are described below.

Assay [1] deals with T1, human NPRA on HEK293 cells bound to ANP (human, UniProt P01160 124-151).
T1 sequence: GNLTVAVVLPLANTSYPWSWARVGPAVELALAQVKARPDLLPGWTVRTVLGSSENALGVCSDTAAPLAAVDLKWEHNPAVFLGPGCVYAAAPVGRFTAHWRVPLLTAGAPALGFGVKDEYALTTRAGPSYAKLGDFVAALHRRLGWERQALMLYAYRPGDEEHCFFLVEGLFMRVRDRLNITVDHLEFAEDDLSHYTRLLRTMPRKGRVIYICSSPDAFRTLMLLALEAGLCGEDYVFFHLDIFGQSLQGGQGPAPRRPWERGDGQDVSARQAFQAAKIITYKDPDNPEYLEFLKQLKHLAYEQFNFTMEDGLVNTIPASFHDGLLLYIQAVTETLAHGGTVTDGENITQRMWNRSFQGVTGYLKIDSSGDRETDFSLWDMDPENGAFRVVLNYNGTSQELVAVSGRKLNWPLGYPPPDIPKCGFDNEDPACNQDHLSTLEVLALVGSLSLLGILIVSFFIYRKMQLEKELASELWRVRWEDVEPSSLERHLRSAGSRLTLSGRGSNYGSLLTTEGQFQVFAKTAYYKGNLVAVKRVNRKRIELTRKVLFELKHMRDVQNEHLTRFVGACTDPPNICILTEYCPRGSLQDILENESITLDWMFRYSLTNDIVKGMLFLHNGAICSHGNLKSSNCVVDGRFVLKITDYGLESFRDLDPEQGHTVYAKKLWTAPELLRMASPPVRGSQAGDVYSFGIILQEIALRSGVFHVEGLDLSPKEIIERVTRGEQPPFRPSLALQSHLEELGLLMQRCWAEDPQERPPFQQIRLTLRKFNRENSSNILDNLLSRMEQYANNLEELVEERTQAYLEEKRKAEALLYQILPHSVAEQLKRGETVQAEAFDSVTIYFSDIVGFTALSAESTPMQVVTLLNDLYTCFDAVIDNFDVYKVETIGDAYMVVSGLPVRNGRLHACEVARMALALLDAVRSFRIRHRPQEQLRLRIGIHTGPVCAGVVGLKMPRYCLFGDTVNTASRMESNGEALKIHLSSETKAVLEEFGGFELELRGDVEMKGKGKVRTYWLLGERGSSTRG
T1 sequence (peptide): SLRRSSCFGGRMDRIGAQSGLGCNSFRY
Description: cell-based or functional assay.

The target in assay [2] is T2, NPRA-Fc fusion protein bound to ANP (human, UniProt P01160 124-151).
T2 construct: mature; Receptor-ligand complex; 'human ANP' is stated for Biacore, plain 'ANP' for ELISA and HXMS; also called NPRA-Fc+ANP
Briefly: SPR (Biacore 3000), NPRA-Fc amine-coupled on CM5, analyte with 100 nM human ANP. Background: SPR reads the build-up and loss of mass on a sensor chip optically.

B1: 5507 Fab (Fab, V domains shown)
VH: QVQLQQSGPGLVKPSQTLSLTCAISGDSVSSRSASWSWIRQSPGRGLEWLGRIYYRSKWYNDYAVSVKSRITINPDTSKNQFSLQLNSVTPEDTAVYYCARMDVPSFRYFDVWGQGTLVTVSS
VL: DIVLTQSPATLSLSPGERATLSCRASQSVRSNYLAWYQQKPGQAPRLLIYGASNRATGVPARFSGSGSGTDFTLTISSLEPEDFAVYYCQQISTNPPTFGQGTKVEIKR
For the molecule B1, the “EC50 of ANP, cGMP production in HEK NPRA cells, with 400 nM Fab” value (“EC50 of ANP, cGMP production” below) in assay [1] was in the range of 0.5 to 0.6 nM.

B2: 5504 Fab (Fab, V domains shown)
VH: QVQLQQSGPGLVKPSQTLSLTCAISGDSVSSRSASWSWIRQSPGRGLEWLGRIYYRSKWYNDYAVSVKSRITINPDTSKNQFSLQLNSVTPEDTAVYYCARMDVPSFRYFDVWGQGTLVTVSS
VL: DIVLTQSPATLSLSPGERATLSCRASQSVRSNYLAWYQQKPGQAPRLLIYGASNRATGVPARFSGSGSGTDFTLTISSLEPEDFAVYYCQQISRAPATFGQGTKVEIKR
As to B2, in assay [1], the “EC50 of ANP, cGMP production” value was determined as 0.3 nM and the “factor by which the potency of ANP is enhanced (cGMP, 400 nM Fab)” value turned out to be 10 fold.

B3: 5592 Fab (Fab, V domains shown)
VH: QVQLQQSGPGLVKPSQTLSLTCAISGDSVSSRSASWSWIRQSPGRGLEWLGRTYYRSHWYYEYAQSVKSRITINPDTSKNQFSLQLNSVTPEDTAVYYCARMDVPSFRYFDVWGQGTLVTVSS
VL: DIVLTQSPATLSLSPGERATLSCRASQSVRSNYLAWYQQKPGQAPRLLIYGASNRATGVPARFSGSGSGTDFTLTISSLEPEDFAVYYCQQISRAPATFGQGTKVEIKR
In assay [2], B3 returned a Kd of 0.426 nM, a koff of 0.000369 s⁻¹ and a kon of 868000 M⁻¹ s⁻¹.

B4: 5514 Fab (Fab, V domains shown)
VH: QVQLQQSGPGLVKPSQTLSLTCAISGDSVSSRSASWSWIRQSPGRGLEWLGRIYYRSKWYNDYAVSVKSRITINPDTSKNQFSLQLNSVTPEDTAVYYCARMDVPSFRYFDVWGQGTLVTVSS
VL: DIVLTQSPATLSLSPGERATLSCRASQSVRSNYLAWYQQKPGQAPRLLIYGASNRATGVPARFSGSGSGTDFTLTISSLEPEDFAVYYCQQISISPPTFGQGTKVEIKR
B4: in assay [1], the “EC50 of ANP, cGMP production” value is 0.5 to 0.6 nM.

B5: 5513 Fab (Fab, V domains shown)
VH: QVQLQQSGPGLVKPSQTLSLTCAISGDSVSSRSASWSWIRQSPGRGLEWLGRIYYRSKWYNDYAVSVKSRITINPDTSKNQFSLQLNSVTPEDTAVYYCARMDVPSFRYFDVWGQGTLVTVSS
VL: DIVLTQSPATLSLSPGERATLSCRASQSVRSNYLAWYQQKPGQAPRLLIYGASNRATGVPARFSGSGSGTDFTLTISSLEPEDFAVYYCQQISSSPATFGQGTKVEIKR
With B5, in assay [1], the “EC50 of ANP, cGMP production” value fell in the range of 0.5 to 0.6 nM.

One may read the Kd as a measure of binding affinity in units of concentration. By koff is commonly meant the first-order rate constant of dissociation. High values mean fast dissociation, low ones slow dissociation. As usually defined, the kon is a measure of how fast the partners come together.
